The values below come from paper PMC7263589, “Integration of phage and yeast display platforms: A reliable and cost effective approach for binning of peptides as displayed on-phage” (PLoS ONE, 2020).

Assay [1] concerns the target FGL-containing peptide phage (FGL Phage). As to the kind of experiment: flow cytometry on yeast-displayed IL-23, phage detected with anti-M13-AF647. As to conditions: n = 2; parent: est. 24; read off a plot.
The target in a further assay is T1, IL-23 (Homo sapiens, UniProt P29460+Q9NPF7).
T1 construct: made in house
T1 sequence (Q9NPF7 20-189): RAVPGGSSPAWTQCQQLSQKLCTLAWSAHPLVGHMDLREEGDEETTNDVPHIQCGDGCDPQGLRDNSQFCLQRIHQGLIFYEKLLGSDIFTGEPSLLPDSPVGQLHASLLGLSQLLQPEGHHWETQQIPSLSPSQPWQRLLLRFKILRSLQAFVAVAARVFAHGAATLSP
T1 sequence (P29460 23-328): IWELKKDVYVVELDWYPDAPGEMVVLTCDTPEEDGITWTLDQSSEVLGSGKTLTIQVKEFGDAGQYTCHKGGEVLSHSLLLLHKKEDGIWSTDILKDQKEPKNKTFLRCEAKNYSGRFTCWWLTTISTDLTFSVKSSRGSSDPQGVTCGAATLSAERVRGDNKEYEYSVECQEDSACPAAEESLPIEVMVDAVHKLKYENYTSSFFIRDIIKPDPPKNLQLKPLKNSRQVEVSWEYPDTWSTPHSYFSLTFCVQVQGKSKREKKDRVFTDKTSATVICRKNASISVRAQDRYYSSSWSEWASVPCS
As to the kind of experiment: SPR direct binding to captured IL-23-AVI (Biacore T200). As to conditions: for kon: 50 μl/min, 10 mM HEPES pH 7.5, 150 mM NaCl, 0.005% P20, 3% DMSO, multi-cycle (single cycle kinetics for 23–652 and IL-23R), read-out: ka. The protocol: SPR (Biacore T200, GE Healthcare) was used to determine binding constants of the peptides against IL-23 and their competitiveness to IL-23R. All SPR experiments were performed at 25°C with flow rate of 50 μl/min. Assay buffer used in direct binding experiment was 10 mM HEPES pH 7.5, 150 mM NaCl, 0.005% P20, and 3% DMSO. Assay buffer used in competition experiment was 10 mM HEPES pH 7.5, 150 mM NaCl, 0.005% P20, and 1% BSA. All peptides were reconstituted first in DMSO as 10 mM stocks and then diluted into assay buffer. The proteins used in direct binding and competition SPR are described in S1 Table in S1 File. For direct binding of peptides against IL-23, 2000–9000 RU of IL-23-AVI was captured to streptavidin sensor chips (GE Healthcare, Series S Sensor Chip SA, BR-1005-31). Dilution series with 3-fold increment were prepared for each peptide. Initially, all peptides were tested up to 30 μM. Concentration range for some were then lowered accordingly based on affinity or nuisance behavior at high concentrations. SPR “multi-cycle” type was used for peptides 23–644, 23–437, 23–441, 23–446, and 23–447. Each cycle consisted of 30s of analyte injection and then 60s of buffer flow to monitor dissociation. “Single cycle kinetics” (SCK) type was used for 23–652 due to their long dissociation half-lives. Each SCK cycle consisted of five 60s injections of sample in increasing concentration with a final 600s of dissociation. To study IL-23 and IL-23R interaction, 200–1000 RU of IL-23-AVI and IL-23R-Fc-AVI were captured to streptavidin sensor chip. Dilution series with 3-fold increment of IL-23R-FLAG-HIS and IL-23-HIS were run in SCK cycle type as described above except the final dissociation time were 60-300s. Sensorgrams from the entire titration series for each sample were fitted globally to extract binding kinetics and affinity using Biacore T200 Evaluation Software 2.0 (GE Healthcare) according to a 1:1 binding model. To identify IL-23 binders that can block receptor binding, a competition SPR was established. In each SPR cycle, fresh IL-23R was capture (<1000 RU) by injecting 10 μg/ml of IL-23R-Fc-AVI to a Protein-A flow cell at 10 μl/min flow rate for 30s. Analyte consisted of a mixture of 20 nM of IL-23 protein and a single concentration of peptide was then injected for 30s at 50 μl/min to observe IL-23 binding. Finally, the Protein-A surface was regenerated by 10 mM Glycine pH 1.5 for 30s at 30 μl/min. IL-23 at 20 nM without peptide, “IL-23 only”, was used as control to quantify IL-23 binding without blockage; while “cold” IL-23R was used as a positive control for blockage.
A general note: Surface plasmon resonance follows binding to a sensor surface in real time, without labels.

The target of assay [2] is T2, IL-23-AVI (human, UniProt Q9NPF7 20-189; P29460 23-328).
T2 construct: IL-23 p19 subunit, human; IL-12/IL-23 p40 subunit, human; Captured on streptavidin chips and beads, so biotinylation of the Avi tag is implied; also called Avi-tagged IL-23; recombinant IL-23
T2 sequence (looked up) 1: T1 sequence (Q9NPF7 20-189)
T2 sequence (looked up) 2: T1 sequence (P29460 23-328)
The assay is described as follows: SPR; Biacore T200, 25°C, 50 μl/min; 2000–9000 RU of IL-23-AVI captured to streptavidin chip, peptides as analyte (3-fold series, up to 30 μM); 10 mM HEPES pH 7.5, 150 mM NaCl, 0.005% P20, 3% DMSO; multi-cycle, single cycle kinetics for 23–652; 1:1 model; n = 1. The following applies: both partners purified.

Assay [3] deals with T2, IL-23-AVI. As to the kind of experiment: AlphaScreen or HTRF; TR-FRET; compounds pre-incubated with IL-23R-FLAG 1 h, then IL-23-AVI; Europium-streptavidin and anti-FLAG-allophycocyanin; 25 mM HEPES, 150 mM NaCl, 0.02% Tween 20, 0.1% BSA, pH 7.4, 1% DMSO; n = 1. As to conditions: both partners purified. (Alpha assays give light when donor and acceptor beads are brought close together.)

Assay [4] concerns the target T2, IL-23-AVI. As to the kind of experiment: AlphaScreen or HTRF; AlphaLISA; IL-23-AVI (1.5 nM) pre-incubated with peptide 30 min, then FLAG-tagged IL-23R (3 nM); streptavidin donor and anti-FLAG acceptor beads; 25 mM HEPES pH 7.4, 150 mM NaCl, 0.02% Tween 20, 0.1% BSA; room temperature; n = 1. The following applies: both partners purified.
[5] abbreviates: IL-23-AVI captured on streptavidin chip, 25°C, 1:1 binding model, n = 1, 23–447 an estimate.

Bridge positions count the residues as written; N and C are the ends. Peptide text beside a SMILES is read from it. A value given as a limit tells only on which side of the number the result lay.

On to “wild-type IL-23 displayed on yeast (from UniProt Q9NPF7;P29460) L24A”, for which the response in assay [1] was 17. Take `CC[C@H](C)[C@H](NC(=O)[C@H](CO)NC(=O)[C@H](Cc1c[nH]c2ccccc12)NC(=O)[C@H](CC(C)C)NC(=O)[C@H](CCSC)NC(=O)[C@@H]1CSSC[C@H](NC(=O)[C@H](CC(C)C)NC(=O)[C@@H](NC(=O)[C@H](CCC(N)=O)NC(=O)[C@H](CC(C)C)NC(=O)[C@@H](N)CC(C)C)[C@@H](C)O)C(=O)N[C@@H](CCC(N)=O)C(=O)N[C@@H](CCSC)C(=O)N[C@@H]([C@@H](C)O)C(=O)N[C@@H](CO)C(=O)N[C@@H](CC(=O)O)C(=O)N[C@@H](C)C(=O)N[C@@H](CCCNC(=N)N)C(=O)N[C@@H]([C@@H](C)O)C(=O)N1)C(=O)O` [23–443] (H-LLQTLCQMTSDARTCMLWSI-OH; disulfide 6-15 (inferred); N-terminus and C-terminus assumed): the Kd on IL-23 (IL-23-AVI captured on streptavidin chip, 25°C, 1:1 binding model, n = 1, 23–447 an estimate, NB: not binding as free peptide) was greater than 30000 nM. In addition, the “binding to IL-23 as a free peptide” value on IL-23 (chemically synthesized peptide) is recorded as “did not retain its binding”. With `CSCC[C@H](NC(=O)[C@H](CCC(N)=O)NC(=O)[C@@H]1CSSC[C@H](NC(=O)[C@H](Cc2ccccc2)NC(=O)[C@H](CO)NC(=O)[C@H](CCCCN)NC(=O)[C@@H](NC(=O)[C@H](CC(C)C)NC(=O)[C@@H](NC(=O)[C@@H](N)CC(=O)O)[C@@H](C)O)[C@@H](C)O)C(=O)N[C@@H](Cc2ccc(O)cc2)C(=O)N[C@@H](Cc2ccccc2)C(=O)NCC(=O)N[C@@H]([C@@H](C)O)C(=O)N[C@@H](Cc2c[nH]c3ccccc23)C(=O)N1)C(=O)N[C@@H](Cc1ccc(O)cc1)C(=O)NCC(=O)N[C@@H](CO)C(=O)N[C@H](C(=O)O)[C@@H](C)O` [23–652] (H-DTLTKSFCYFGTWCQMYGST-OH; disulfide 8-14), the kon at IL-23 (setting [5]) was 36600 M⁻¹ s⁻¹. On to “wild-type IL-23 displayed on yeast (from UniProt Q9NPF7;P29460) W26A”, for which, in assay [1], the response was 1.1. Consider “wild-type IL-23 displayed on yeast (from UniProt Q9NPF7;P29460) K20A”, for which the response in assay [1] was 22. Regarding “wild-type IL-23 displayed on yeast (from UniProt Q9NPF7;P29460) W137A”, in assay [1], the response was found to be 23. On to `CC(C)C[C@@H]1NC(=O)CNC(=O)[C@H](Cc2ccccc2)NC(=O)[C@H](Cc2c[nH]c3ccccc23)NC(=O)[C@@H](NC(=O)[C@@H]2CCCN2C(=O)[C@H](CC(=O)O)NC(=O)[C@@H]2CCCN2C(=O)[C@@H](NC(=O)[C@@H](N)Cc2c[nH]cn2)C(C)C)CSSC[C@@H](C(=O)N[C@@H](CC(=O)O)C(=O)N[C@H](C(=O)N[C@@H](CC(C)C)C(=O)N[C@@H](CC(N)=O)C(=O)N[C@@H](CO)C(=O)O)C(C)C)NC(=O)[C@H](CC(C)C)NC1=O` [23–644] (H-HVPDPCWFGLLCDVLNS-OH; disulfide 6-12), for which the kon at IL-23 (setting [5]) is 49300 M⁻¹ s⁻¹.

For `CC(C)C[C@H](NC(=O)CN)C(=O)N[C@@H](CCCNC(=N)N)C(=O)N[C@@H](CCC(=O)O)C(=O)N[C@@H](CCCNC(=N)N)C(=O)N[C@H]1CSSC[C@@H](C(=O)N[C@@H](CCC(N)=O)C(=O)N[C@@H](CC(N)=O)C(=O)N[C@@H](Cc2c[nH]c3ccccc23)C(=O)N[C@@H](Cc2ccc(O)cc2)C(=O)N[C@@H](Cc2c[nH]c3ccccc23)C(=O)O)NC(=O)[C@H](Cc2ccccc2)NC(=O)[C@H](CCC(=O)O)NC(=O)[C@H](Cc2c[nH]cn2)NC(=O)CNC(=O)[C@H](Cc2ccc(O)cc2)NC(=O)[C@H](CC(N)=O)NC(=O)[C@H](CCCNC(=N)N)NC(=O)[C@H](C(C)C)NC1=O` [23–446] (H-GLRERCVRNYGHEFCQNWYW-OH; disulfide 6-15), on IL-23 (setting [5]), the kon is 3.88e+06 M⁻¹ s⁻¹.

B1: peptide 23–644 (free, chemically synthesized) (peptide)
peptide: HVPDPCWFGLLCDVLNS
notes: selected from a peptide phage library against IL-23; Two cysteines; also called FGL-containing peptide; source: synthetic peptide (CPC Scientific)
In the case of B1, in the assay with IL-23-AVI [2], binding was put at a Kd of 2620 nM, the koff was 0.129 s⁻¹ and the kon was determined as 49300 M⁻¹ s⁻¹.

B2: peptide 23–446 (free, chemically synthesized) (peptide)
peptide: GLRERCVRNYGHEFCQNWYW
notes: selected from a peptide phage library against IL-23; Two cysteines; source: synthetic peptide (CPC Scientific)
As for B2, in the assay with IL-23-AVI [2], the Kd was found to be 22.3 nM, the koff was determined as 0.0863 s⁻¹ and the kon amounted to 3.88e+06 M⁻¹ s⁻¹. Besides, the IC50 in the assay with IL-23-AVI [3] was 590 nM. Further, the midpoint of inhibition with IL-23-AVI [4], the IC50, lay at 240 nM.

B3: peptide 23–652 (free, chemically synthesized) (peptide)
peptide: DTLTKSFCYFGTWCQMYGST
notes: selected from a peptide phage library against IL-23; Two cysteines; also called FGLT-containing peptide; FGL-containing peptide; source: synthetic peptide (CPC Scientific)
In the assay with IL-23-AVI [2], B3 showed an equilibrium dissociation constant (Kd) of 71.8 nM, a koff of 0.00263 s⁻¹ and a kon of 36600 M⁻¹ s⁻¹.

The Kd is the concentration at which binding is half-saturated. One may read the koff as a measure of how fast the partners let go of each other. A lower koff goes with a long-lived complex. For orientation: IC50 means the concentration needed to halve the response being measured. Low readings indicate greater potency, high ones weaker potency.
